Reference: US20150203556A1 (UAB RESEARCH FOUNDATION, published 2015)

B1: IL22R1ddq/IL20R2-FCkh (Fc fusion)
chain 1: AHAPEDPSDLLQHVKFQSSNFENILTWDSGPEGTPDTVYSIEYKTYGERDWVAKKGCQRITRKSCDLTVETGDLQELYYARVTAVSAGGRSATKMTDRFSSLQHTTLKPPDVTCISKVRSIQMIVHPTPTPIRAGDGHRLTLEDIFHDLFYHLELQVNRTYQMHLGGKQREYEFFGLTPDTEFLGTIMICVPTWAKESAPYMCRVKTLPDRTWTYSGSGGGGPSVFIFPPKIKDVLMISLSPIVTCVVVDVSEDDPDVQISWFVNNVEVHTAQTQTHREDYNSTLRVVSALPIQHQDWMSGKEFKCKVNNKDLPAPIERTISKPKGSVRAPQVYVLPPPCEEMTKKQVTLYCMVTDFMPEDIYVEWTNNGKTELNYKNTEPVLDSDGSYFMYSKLRVEKKNWVERNSYSCSVVHEGLHNHHTTKSFSRTPGKGLEASGGLNDIFEAQKIEWHEGTGHHHHHH
chain 2: DEVAILPAPQQLSVLSTNMKHLLMWSPVIAPGETVYYSVEYQGEYESLYTSHIWIPSSWCSLTEGPECDVTDDITATVPYNLRVRATLGSQTSAWSILKHPFNRQSTILTRPGMEITKDGFHLVIELEDLGPQFEFLVAYWRREPGAEEHVKMVRSGGIPVHLETMEPGAAYCVKAQTFVKAIGRYSAFSQTECVEVQGEAGSGGGGPSVFIFPPKIKDVLMISLSPIVTCVVVDVSEDDPDVQISWFVNNVEVHTAQTQTHREDYNSTLRVVSALPIQHQDWMSGKEFKCKVNNKDLPAPIERTISKPKGSVRAPQVYVLPPPEEEMTKKQVTLTCMVTDFMPEDIYVEWTNNGKTELNYKNTEPVLDSDGSYFMTSKLRVEKKNWVERNSYSCSVVHEGLHNHHTTKSFGGCGTPASGGLNDIFEAQKIEWHE
notes: also called IL-22R1/IL-20R2-FCkh; soluble IL-22R1/IL-20R2 receptor heterodimer
B2: IL-20 (ligand)
chain: MLKTLNLGSCVIATNLQEIRNGFSEIRGSVQAKDGNIDIRILRRTESLQDTKPANRCCLLRHLLRLYLDRVFKNYQTPDHYTLRKISSLANSFLTIKKDLRLCHAHMTCHCGEEAMKKYSQILSHFEKLEPQAAVVKALGELDILLQWMEETE
notes: The crystal model holds residues 24-176; also called Interleukin-20; IL-20b

Experiments:
IL-19 = target: T1, IL-19 (human, UniProt Q9UHD0 25-177); assay: SPR, IL-19 as analyte over IL22R1ddq/IL20R2-FCkh as ligand
T1 construct: also called Interleukin-19; IL-19a
T1 sequence: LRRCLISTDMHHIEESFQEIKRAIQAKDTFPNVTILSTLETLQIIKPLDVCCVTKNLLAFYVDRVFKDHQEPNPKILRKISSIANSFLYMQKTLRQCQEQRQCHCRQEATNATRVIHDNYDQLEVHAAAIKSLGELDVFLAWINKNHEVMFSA

IL-20 = target: B2; assay: SPR, IL-20 as analyte over IL22R1ddq/IL20R2-FCkh as ligand
IL-22 = target: T2, IL-22 (Homo sapiens (Human), UniProt Q9GZX6 35-179, limits assumed); assay: SPR, IL-22 as analyte over IL22R1ddq/IL20R2-FCkh as ligand
T2 construct: also called IL-22 wt
T2 sequence: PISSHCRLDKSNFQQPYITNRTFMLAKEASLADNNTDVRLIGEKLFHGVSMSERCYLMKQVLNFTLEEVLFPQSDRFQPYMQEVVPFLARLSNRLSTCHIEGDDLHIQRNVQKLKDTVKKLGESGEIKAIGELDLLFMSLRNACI

IL-20R1 triple mutant M3 = target: T3, IL-20R1 triple mutant M3 (UniProt Q9UHF4 29-245); assay: SPR, IL-20 + M3 co-injected over an IL-20R2 chip
T3 construct: range 29-245; also called IL-20R1 site 3 mutant
T3 sequence (looked up): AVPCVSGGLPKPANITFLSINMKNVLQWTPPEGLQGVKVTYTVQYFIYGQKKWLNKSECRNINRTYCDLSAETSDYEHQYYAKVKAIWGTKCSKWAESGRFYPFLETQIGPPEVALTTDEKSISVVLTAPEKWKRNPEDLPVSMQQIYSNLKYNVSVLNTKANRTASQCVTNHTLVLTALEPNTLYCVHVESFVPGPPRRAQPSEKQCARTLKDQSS
Description: FIGS. 9A-9D show the IL-20 site 3 interface is essential and distinct from other complexes. FIG. 9A is a ribbon diagram showing the site 3 interface between IL-20R1 and IL-20R2. FIG. 9B is a graph showing the importance of the site 3 interface in ternary complex formation. SPR sensograms obtained by injecting cytokines (IL-19 or IL-20, at 250 nM) and/or receptors (IL-20R1 or M3, at 425 nM), as labeled on the figure, over an IL-20R2 coupled biacore chip. Injection of IL-20+IL-20R1 results in a large response consistent with ternary complex formation. However, injection of IL-20+M3, an IL-20R1 site 3 mutant with S190^IL-20R1, W194^IL-20R1, and W207^IL-20R1 mutated to alanine drastically reduces binding due to disruption of ternary complex formation. Similar results are observed for complex formation by IL-19. FIG. 9C is a ribbon diagram of the superposition of the D2 domains of GHR site 1, IL-6R, and IL-20R1. The positions of the D2 domains of GHR site2, GP130, and IL-20R2 are shown, along with a schematic of the differences in their orientations. FIG. 9D is a ribbon diagram showing the putative model of the IL-22/IL-22R1/IL-10R2 complex based on the IL-20 ternary complex structure. […]

IL22R1ddq/IL20R2-FCkh = target: B1; assay: SPR with the IL-22R1/IL-20R2-FCkh heterodimer

With B1 the Kd (IL-19) was 101 nM, the Kd (IL-20) was 0.99 nM and the Kd (IL-22) was 5.15 nM. For the same binder, the kon (IL-22) was about 957000 M⁻¹ s⁻¹.

With B2 the binding result (IL-20R1 triple mutant M3) was “binds” and the “fold difference in binding affinity against IL-19” value (IL22R1ddq/IL20R2-FCkh) was 100 fold.
